Columns and labels:
[1] = target: T1, MdJa2-His (Malus domestica? (red-fleshed apple), UniProt Q208U7 1-224); test: competition; 50-200x excess vs labeled N5; EMSA (LightShift kit): 2.5% glycerol, 5 mM MgCl2, 10 mM EDTA, 50 mM KCl; room temperature, 30 min; pH not stated; settings: protein: recombinant; tags: His (pET32a); chain copies: 2; blunt
[2] = target: T1, MdJa2-His; test: EMSA; EMSA (LightShift kit): 2.5% glycerol, 5 mM MgCl2, 10 mM EDTA, 50 mM KCl; room temperature, 30 min; pH not stated; settings: protein: recombinant, tags: His (pET32a), chain copies: 2, blunt
[3] = target: T1, MdJa2-His; test: competition; 50-200x excess vs labeled N3; EMSA (LightShift kit): 2.5% glycerol, 5 mM MgCl2, 10 mM EDTA, 50 mM KCl; room temperature, 30 min; pH not stated; settings: protein: recombinant; tags: His (pET32a); chain copies: 2; blunt

T1 sequence (Q208U7 entry or part of it): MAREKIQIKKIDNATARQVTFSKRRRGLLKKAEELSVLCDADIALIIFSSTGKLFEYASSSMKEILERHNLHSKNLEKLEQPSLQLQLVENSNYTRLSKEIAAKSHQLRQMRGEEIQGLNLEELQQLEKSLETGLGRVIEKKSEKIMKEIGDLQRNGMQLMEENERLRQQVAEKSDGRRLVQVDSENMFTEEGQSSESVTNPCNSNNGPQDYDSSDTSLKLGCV

| Binder | binding result ([2]; label: biotin (labeled probe)) | also measured |
| --- | --- | --- |
| MYB12-mutant probe (printed NYB12-mutant) (dsDNA) DNA 1: AAATTCAGGAACCATTGCTACAACCAAGCATAACACAGT DNA 2: ACTGTGTTATGCTTGGTTGTAGCAATGGTTCCTGAATTT | – | binding result [1]: no binding |
| MYB12 promoter probe (dsDNA) DNA 1: AAATTCAGGAACCATTGCTACAATTAAGCATAACACAGT DNA 2: ACTGTGTTATGCTTAATTGTAGCAATGGTTCCTGAATTT | binds | – |
| ANS promoter probe (dsDNA) DNA 1: GCAATTAAGTTTGTAAACCAATAATTAACTTAATTTTGAT DNA 2: ATCAAAATTAAGTTAATTATTGGTTTACAAACTTAATTGC | binds | – |
| ANS-mutant probe (dsDNA) DNA 1: GCAACCAAGTTTGTAAACCAATAATTAACTTAATTTTGAT DNA 2: ATCAAAATTAAGTTAATTATTGGTTTACAAACTTGGTTGC | – | binding result [2]: no binding |
| MYB9 promoter probe (dsDNA) DNA 1: TAAATAGTAATAATATCATTTTTGTACATTCAGATAA DNA 2: TTATCTGAATGTACAAAAATGATATTATTACTATTTA | binds | – |
| MYB9-mutant probe (dsDNA) DNA 1: TAAATAGTAATAATATCACCTTTGTACATTCAGATAA DNA 2: TTATCTGAATGTACAAAGGTGATATTATTACTATTTA | – | binding result [3]: no binding |
